{"source": "patent US20250339531A1", "about": "“DUX4 POLYPEPTIDES AND NUCLEIC ACIDS FOR TREATING INFLAMMATORY AND AUTOIMMUNE CONDITIONS” (Fred Hutchinson Cancer Center, priority 2021, published 2025)", "key": {"[1]": {"molecular_target": "Prostate tumor-overexpressed gene 1 protein (Homo sapiens) (UniProt Q86YD1)", "test": "anti-FLAG co-IP LC-MS, exp 3, +Dox"}, "[2]": {"molecular_target": "Tubulin beta-6 chain (Homo sapiens) (UniProt Q9BUF5)", "test": "anti-FLAG co-IP LC-MS, exp 3, +Dox"}, "[3]": {"molecular_target": "AP-2 complex subunit alpha-1 (Homo sapiens) (UniProt O95782)", "test": "anti-FLAG co-IP LC-MS, exp 3, +Dox"}, "[4]": {"molecular_target": "60S ribosomal protein L8 (Homo sapiens) (UniProt P62917)", "test": "anti-FLAG co-IP LC-MS, exp 3, +Dox"}, "[5]": {"molecular_target": "60S ribosomal protein L3 (Homo sapiens) (UniProt P39023)", "test": "anti-FLAG co-IP LC-MS, exp 3, +Dox"}, "[6]": {"molecular_target": "40S ribosomal protein S14 (Homo sapiens) (UniProt P62263)", "test": "anti-FLAG co-IP LC-MS, exp 3, +Dox"}, "[7]": {"molecular_target": "40S ribosomal protein S3a (Homo sapiens) (UniProt P61247)", "test": "anti-FLAG co-IP LC-MS, exp 3, +Dox"}, "[8]": {"molecular_target": "60S ribosomal protein L4 (Homo sapiens) (UniProt P36578)", "test": "anti-FLAG co-IP LC-MS, exp 3, +Dox"}, "[9]": {"molecular_target": "Nucleophosmin (Homo sapiens) (UniProt P06748)", "test": "anti-FLAG co-IP LC-MS, exp 3, +Dox"}, "[10]": {"molecular_target": "Actin-related protein 3 (Homo sapiens) (UniProt P61158)", "test": "anti-FLAG co-IP LC-MS, exp 3, +Dox"}, "[11]": {"molecular_target": "Probable ATP-dependent RNA helicase DDX6 (Homo sapiens) (UniProt P26196)", "sequence (P26196 whole entry)": "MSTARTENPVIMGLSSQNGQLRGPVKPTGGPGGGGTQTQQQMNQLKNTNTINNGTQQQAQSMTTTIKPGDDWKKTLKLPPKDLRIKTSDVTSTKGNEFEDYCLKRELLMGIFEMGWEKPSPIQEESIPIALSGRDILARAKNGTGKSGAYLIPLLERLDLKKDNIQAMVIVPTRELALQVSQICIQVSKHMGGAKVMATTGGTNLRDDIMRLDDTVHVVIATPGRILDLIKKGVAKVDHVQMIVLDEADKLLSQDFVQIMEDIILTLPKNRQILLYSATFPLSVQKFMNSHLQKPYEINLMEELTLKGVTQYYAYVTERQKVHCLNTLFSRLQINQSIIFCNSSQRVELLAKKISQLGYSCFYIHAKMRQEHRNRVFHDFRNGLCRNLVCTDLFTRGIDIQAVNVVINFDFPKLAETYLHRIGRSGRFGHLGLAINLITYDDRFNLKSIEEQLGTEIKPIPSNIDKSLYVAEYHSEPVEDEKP", "test": "anti-FLAG co-IP LC-MS, exp 3, +Dox"}, "[12]": {"molecular_target": "Alpha-actinin-4 (Homo sapiens) (UniProt O43707)", "test": "anti-FLAG co-IP LC-MS, exp 3, +Dox"}, "[13]": {"molecular_target": "Neuroblast differentiation-associated protein AHNAK (Homo sapiens) (UniProt Q09666)", "test": "anti-FLAG co-IP LC-MS, exp 3, +Dox"}, "[14]": {"molecular_target": "Ribonuclease inhibitor (Homo sapiens) (UniProt P13489)", "sequence (P13489 2-461 limits assumed)": "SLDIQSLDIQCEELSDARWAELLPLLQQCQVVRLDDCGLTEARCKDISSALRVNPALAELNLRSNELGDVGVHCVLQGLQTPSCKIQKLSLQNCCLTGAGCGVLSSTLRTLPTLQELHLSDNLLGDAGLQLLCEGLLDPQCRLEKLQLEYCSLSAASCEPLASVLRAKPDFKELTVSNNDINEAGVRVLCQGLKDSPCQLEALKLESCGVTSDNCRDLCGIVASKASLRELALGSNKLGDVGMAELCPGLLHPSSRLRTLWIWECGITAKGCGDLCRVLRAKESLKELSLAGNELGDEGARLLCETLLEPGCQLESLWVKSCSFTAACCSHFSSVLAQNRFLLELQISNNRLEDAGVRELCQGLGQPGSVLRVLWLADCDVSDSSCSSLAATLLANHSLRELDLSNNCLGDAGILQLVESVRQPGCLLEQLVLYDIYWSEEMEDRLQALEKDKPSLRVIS", "test": "anti-FLAG co-IP LC-MS, exp 3, +Dox"}, "[15]": {"molecular_target": "Endoplasmic reticulum chaperone BiP (Homo sapiens) (UniProt P11021)", "test": "anti-FLAG co-IP LC-MS, exp 3, +Dox"}, "[16]": {"molecular_target": "Fibronectin (Homo sapiens) (UniProt P02751)", "test": "anti-FLAG co-IP LC-MS, exp 3, +Dox"}, "Caprin-1 (Homo sapiens)": {"molecular_target": "Caprin-1 (Homo sapiens) (UniProt Q14444)", "test": "anti-FLAG co-IP LC-MS, exp 3, +Dox"}, "[17]": {"molecular_target": "ATP synthase subunit alpha, mitochondrial (Homo sapiens) (UniProt P25705)", "test": "anti-FLAG co-IP LC-MS, exp 3, +IFNg +Dox"}, "[18]": {"molecular_target": "40S ribosomal protein S4, X isoform (Homo sapiens) (UniProt P62701)", "test": "anti-FLAG co-IP LC-MS, exp 3, +IFNg +Dox"}, "Filamin-A (Homo sapiens)": {"molecular_target": "Filamin-A (Homo sapiens) (UniProt P21333)", "sequence (P21333 2-2647 limits assumed)": "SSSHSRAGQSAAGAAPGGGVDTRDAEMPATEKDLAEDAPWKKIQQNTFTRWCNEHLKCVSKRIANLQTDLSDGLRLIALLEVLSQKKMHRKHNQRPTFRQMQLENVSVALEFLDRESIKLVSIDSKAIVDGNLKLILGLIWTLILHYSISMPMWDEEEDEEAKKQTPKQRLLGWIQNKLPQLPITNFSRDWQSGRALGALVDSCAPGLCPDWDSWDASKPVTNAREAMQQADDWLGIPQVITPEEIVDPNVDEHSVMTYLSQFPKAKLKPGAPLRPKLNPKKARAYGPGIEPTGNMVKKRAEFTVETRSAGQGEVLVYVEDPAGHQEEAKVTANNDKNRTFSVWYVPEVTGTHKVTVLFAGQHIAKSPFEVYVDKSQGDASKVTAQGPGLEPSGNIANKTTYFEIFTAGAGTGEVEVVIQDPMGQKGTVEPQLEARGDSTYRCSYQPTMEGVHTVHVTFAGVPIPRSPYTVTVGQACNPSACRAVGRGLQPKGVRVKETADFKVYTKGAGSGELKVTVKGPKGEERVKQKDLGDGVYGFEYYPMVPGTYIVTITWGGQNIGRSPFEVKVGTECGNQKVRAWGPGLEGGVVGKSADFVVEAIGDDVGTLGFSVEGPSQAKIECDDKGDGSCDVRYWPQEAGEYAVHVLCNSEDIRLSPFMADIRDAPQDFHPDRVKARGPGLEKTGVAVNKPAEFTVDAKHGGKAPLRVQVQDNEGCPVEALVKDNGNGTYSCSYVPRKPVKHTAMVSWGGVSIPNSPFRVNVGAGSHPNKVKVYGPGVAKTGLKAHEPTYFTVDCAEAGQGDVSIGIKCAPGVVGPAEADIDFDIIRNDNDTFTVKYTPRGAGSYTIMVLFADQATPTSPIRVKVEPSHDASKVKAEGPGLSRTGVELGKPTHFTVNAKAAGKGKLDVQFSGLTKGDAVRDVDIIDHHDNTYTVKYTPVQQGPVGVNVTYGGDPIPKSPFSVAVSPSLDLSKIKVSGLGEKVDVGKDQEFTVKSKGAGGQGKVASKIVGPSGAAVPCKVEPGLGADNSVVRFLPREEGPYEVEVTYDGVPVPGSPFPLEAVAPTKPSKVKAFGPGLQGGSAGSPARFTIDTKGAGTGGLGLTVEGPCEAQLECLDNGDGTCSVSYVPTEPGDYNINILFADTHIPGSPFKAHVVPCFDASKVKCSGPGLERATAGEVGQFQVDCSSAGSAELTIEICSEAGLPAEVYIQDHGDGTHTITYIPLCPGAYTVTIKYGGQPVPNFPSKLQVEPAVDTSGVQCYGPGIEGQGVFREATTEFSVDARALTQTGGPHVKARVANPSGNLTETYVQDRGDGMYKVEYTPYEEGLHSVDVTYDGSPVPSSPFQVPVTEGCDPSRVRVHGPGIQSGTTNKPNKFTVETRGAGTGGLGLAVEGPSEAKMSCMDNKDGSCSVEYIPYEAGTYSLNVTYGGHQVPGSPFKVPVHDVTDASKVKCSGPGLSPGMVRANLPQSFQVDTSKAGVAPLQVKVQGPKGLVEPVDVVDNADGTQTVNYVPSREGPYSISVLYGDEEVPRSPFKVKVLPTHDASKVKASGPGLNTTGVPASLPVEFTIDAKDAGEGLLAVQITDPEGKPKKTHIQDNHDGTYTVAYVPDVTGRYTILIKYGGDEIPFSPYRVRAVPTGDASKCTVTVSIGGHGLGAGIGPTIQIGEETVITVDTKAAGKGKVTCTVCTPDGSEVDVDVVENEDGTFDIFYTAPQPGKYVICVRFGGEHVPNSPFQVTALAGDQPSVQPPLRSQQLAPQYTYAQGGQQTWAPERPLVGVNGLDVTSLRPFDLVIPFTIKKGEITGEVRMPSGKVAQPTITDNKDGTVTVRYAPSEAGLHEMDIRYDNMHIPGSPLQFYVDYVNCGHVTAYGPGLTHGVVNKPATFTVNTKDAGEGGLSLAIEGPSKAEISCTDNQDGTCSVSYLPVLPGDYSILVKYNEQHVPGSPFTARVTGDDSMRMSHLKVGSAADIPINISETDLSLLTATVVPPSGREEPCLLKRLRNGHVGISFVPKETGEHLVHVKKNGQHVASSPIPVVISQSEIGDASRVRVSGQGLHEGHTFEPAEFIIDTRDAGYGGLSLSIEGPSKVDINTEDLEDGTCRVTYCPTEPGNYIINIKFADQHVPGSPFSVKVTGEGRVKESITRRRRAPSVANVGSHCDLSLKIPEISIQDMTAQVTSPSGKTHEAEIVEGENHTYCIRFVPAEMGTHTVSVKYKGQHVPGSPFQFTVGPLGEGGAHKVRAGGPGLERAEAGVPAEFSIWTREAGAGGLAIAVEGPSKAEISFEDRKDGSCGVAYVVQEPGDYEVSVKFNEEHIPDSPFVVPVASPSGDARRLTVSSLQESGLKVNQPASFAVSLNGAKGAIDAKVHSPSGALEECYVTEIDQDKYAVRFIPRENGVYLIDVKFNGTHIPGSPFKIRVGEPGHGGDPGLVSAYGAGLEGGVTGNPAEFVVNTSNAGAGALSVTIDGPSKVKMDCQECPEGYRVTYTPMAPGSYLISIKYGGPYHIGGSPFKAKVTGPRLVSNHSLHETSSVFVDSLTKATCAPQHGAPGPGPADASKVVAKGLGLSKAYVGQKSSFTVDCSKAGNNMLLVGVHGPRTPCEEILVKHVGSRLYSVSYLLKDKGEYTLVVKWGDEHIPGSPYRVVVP", "test": "anti-FLAG co-IP LC-MS, exp 3, +IFNg +Dox"}, "[19]": {"molecular_target": "Ubiquitin carboxyl-terminal hydrolase 7 (Homo sapiens) (UniProt Q93009)", "test": "anti-FLAG co-IP LC-MS, exp 3, +IFNg +Dox"}, "[20]": {"molecular_target": "Caveolae-associated protein 1 (Homo sapiens) (UniProt Q6NZI2)", "sequence (Q6NZI2 whole entry)": "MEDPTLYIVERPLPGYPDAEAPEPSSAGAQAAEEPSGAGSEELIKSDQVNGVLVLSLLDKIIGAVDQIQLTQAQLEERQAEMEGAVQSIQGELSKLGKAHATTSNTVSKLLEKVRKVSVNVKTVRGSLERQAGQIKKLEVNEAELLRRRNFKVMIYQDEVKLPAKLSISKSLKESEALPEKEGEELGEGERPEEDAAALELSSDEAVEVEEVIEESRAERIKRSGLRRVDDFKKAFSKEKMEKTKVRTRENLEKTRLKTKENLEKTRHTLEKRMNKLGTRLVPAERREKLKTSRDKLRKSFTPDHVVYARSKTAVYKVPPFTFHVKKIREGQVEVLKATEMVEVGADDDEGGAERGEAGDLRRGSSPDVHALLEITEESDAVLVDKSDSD", "test": "anti-FLAG co-IP LC-MS, exp 3, +IFNg +Dox"}, "[21]": {"molecular_target": "Plasminogen activator inhibitor 1 (Homo sapiens) (UniProt P05121)", "test": "anti-FLAG co-IP LC-MS, exp 3, +IFNg +Dox"}, "[22]": {"molecular_target": "Prolyl 4-hydroxylase subunit alpha-1 (Homo sapiens) (UniProt P13674)", "sequence (P13674 18-534 limits assumed)": "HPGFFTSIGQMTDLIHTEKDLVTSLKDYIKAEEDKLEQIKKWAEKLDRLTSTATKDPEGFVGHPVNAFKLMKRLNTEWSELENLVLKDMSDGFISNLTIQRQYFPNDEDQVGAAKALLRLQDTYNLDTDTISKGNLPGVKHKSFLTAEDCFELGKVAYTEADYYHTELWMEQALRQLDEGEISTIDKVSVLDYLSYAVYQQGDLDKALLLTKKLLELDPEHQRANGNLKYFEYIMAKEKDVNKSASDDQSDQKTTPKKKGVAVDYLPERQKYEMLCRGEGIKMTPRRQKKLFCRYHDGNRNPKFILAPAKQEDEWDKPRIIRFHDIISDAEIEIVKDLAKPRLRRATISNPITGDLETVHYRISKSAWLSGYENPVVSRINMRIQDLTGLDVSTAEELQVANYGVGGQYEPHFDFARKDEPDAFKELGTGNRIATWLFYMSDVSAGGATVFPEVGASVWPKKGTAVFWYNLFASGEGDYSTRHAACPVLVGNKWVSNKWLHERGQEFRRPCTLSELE", "test": "anti-FLAG co-IP LC-MS, exp 3, +IFNg +Dox"}, "[23]": {"molecular_target": "60S ribosomal protein L7a (Homo sapiens) (UniProt P62424)", "test": "anti-FLAG co-IP LC-MS, exp 3, +IFNg +Dox"}, "[24]": {"molecular_target": "Importin-5 (Fragment) (Homo sapiens) (UniProt O00410)", "test": "anti-FLAG co-IP LC-MS, exp 3, +IFNg +Dox"}, "[25]": {"molecular_target": "Cytoskeleton-associated protein 4 (Homo sapiens) (UniProt Q07065)", "sequence (Q07065 whole entry)": "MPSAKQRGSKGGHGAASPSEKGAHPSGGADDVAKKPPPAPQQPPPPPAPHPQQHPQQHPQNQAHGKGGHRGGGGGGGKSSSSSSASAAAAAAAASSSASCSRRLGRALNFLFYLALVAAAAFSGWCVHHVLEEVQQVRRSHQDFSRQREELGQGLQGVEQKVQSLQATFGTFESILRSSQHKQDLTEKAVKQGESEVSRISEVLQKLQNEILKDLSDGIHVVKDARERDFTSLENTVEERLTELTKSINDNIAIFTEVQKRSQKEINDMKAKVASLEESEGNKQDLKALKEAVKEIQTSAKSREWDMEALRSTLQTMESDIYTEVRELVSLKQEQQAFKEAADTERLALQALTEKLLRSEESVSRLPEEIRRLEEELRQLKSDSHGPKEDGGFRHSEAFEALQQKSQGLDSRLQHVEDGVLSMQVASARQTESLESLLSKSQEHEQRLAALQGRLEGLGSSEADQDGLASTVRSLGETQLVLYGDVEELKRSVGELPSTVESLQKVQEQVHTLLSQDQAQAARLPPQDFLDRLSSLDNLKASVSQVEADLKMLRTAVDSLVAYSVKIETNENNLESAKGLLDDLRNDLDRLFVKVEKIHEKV", "test": "anti-FLAG co-IP LC-MS, exp 3, +IFNg +Dox"}, "[26]": {"molecular_target": "Procollagen-lysine,2-oxoglutarate 5-dioxygenase 2 (Homo sapiens) (UniProt O00469)", "test": "anti-FLAG co-IP LC-MS, exp 3, +IFNg +Dox"}, "[27]": {"molecular_target": "60S ribosomal protein L4 (Homo sapiens) (UniProt P36578)", "test": "anti-FLAG co-IP LC-MS, exp 3, +IFNg +Dox"}, "[28]": {"molecular_target": "Keratin, type II cytoskeletal 71 (Homo sapiens) (UniProt Q3SY84)", "test": "anti-FLAG co-IP LC-MS, exp 3, +IFNg +Dox"}, "[29]": {"molecular_target": "Elongation factor 1-alpha 1 (Homo sapiens) (UniProt P68104)", "test": "anti-FLAG co-IP LC-MS, exp 3, +IFNg +Dox"}, "[30]": {"molecular_target": "Polypyrimidine tract-binding protein 1 (Homo sapiens) (UniProt P26599)", "test": "anti-FLAG co-IP LC-MS, exp 3, +IFNg +Dox"}, "[31]": {"molecular_target": "Ribonuclease inhibitor (Homo sapiens) (UniProt P13489)", "test": "anti-FLAG co-IP LC-MS, exp 3, +IFNg +Dox"}, "[32]": {"molecular_target": "Stress-70 protein, mitochondrial (Homo sapiens) (UniProt P38646)", "test": "anti-FLAG co-IP LC-MS, exp 3, +IFNg +Dox"}, "[33]": {"molecular_target": "Protein disulfide-isomerase A3 (Fragment) (Homo sapiens) (UniProt P30101)", "test": "anti-FLAG co-IP LC-MS, exp 3, +IFNg +Dox"}, "[34]": {"molecular_target": "X-ray repair cross-complementing protein 5 (Homo sapiens) (UniProt P13010)", "test": "anti-FLAG co-IP LC-MS, exp 3, +IFNg +Dox"}, "[35]": {"molecular_target": "40S ribosomal protein S8 (Homo sapiens) (UniProt P62241)", "test": "anti-FLAG co-IP LC-MS, exp 3, +IFNg +Dox"}, "[36]": {"molecular_target": "Tubulin beta-2A chain (Homo sapiens) (UniProt Q13885)", "test": "anti-FLAG co-IP LC-MS, exp 3, +IFNg +Dox"}}, "data": [{"substance": "i3XFLAG-NLS-CTDaa154-424", "values": [{"measurement": "PSMs", "setting": "[1]", "result": 2, "unit": "PSMs"}, {"measurement": "PSMs", "setting": "[2]", "result": 20, "unit": "PSMs"}, {"measurement": "PSMs", "setting": "[3]", "result": 10, "unit": "PSMs"}, {"measurement": "PSMs", "setting": "[4]", "result": 3, "unit": "PSMs"}, {"measurement": "PSMs", "setting": "[5]", "result": 3, "unit": "PSMs"}, {"measurement": "PSMs", "setting": "[6]", "result": 2, "unit": "PSMs"}, {"measurement": "PSMs", "setting": "[7]", "result": 3, "unit": "PSMs"}, {"measurement": "PSMs", "setting": "[8]", "result": 10, "unit": "PSMs"}, {"measurement": "PSMs", "setting": "[9]", "result": 2, "unit": "PSMs"}, {"measurement": "PSMs", "setting": "[10]", "result": 5, "unit": "PSMs"}, {"measurement": "PSMs", "setting": "[11]", "result": 2, "unit": "PSMs"}, {"measurement": "PSMs", "setting": "[12]", "result": 2, "unit": "PSMs"}, {"measurement": "PSMs", "setting": "[13]", "result": 8, "unit": "PSMs"}, {"measurement": "PSMs", "setting": "[14]", "result": 3, "unit": "PSMs"}, {"measurement": "PSMs", "setting": "[15]", "result": 22, "unit": "PSMs"}, {"measurement": "PSMs", "setting": "[16]", "result": 17, "unit": "PSMs"}, {"measurement": "PSMs", "setting": "Caprin-1 (Homo sapiens)", "result": 5, "unit": "PSMs"}, {"measurement": "PSMs", "setting": "[17]", "result": 2, "unit": "PSMs"}, {"measurement": "PSMs", "setting": "[18]", "result": 2, "unit": "PSMs"}, {"measurement": "PSMs", "setting": "Filamin-A (Homo sapiens)", "result": 12, "unit": "PSMs"}, {"measurement": "PSMs", "setting": "[19]", "result": 6, "unit": "PSMs"}, {"measurement": "PSMs", "setting": "[20]", "result": 3, "unit": "PSMs"}, {"measurement": "PSMs", "setting": "[21]", "result": 3, "unit": "PSMs"}, {"measurement": "PSMs", "setting": "[22]", "result": 5, "unit": "PSMs"}, {"measurement": "PSMs", "setting": "[23]", "result": 5, "unit": "PSMs"}, {"measurement": "PSMs", "setting": "[24]", "result": 3, "unit": "PSMs"}, {"measurement": "PSMs", "setting": "[25]", "result": 62, "unit": "PSMs"}, {"measurement": "PSMs", "setting": "[26]", "result": 3, "unit": "PSMs"}, {"measurement": "PSMs", "setting": "[27]", "result": 34, "unit": "PSMs"}, {"measurement": "PSMs", "setting": "[28]", "result": 9, "unit": "PSMs"}, {"measurement": "PSMs", "setting": "[29]", "result": 21, "unit": "PSMs"}, {"measurement": "PSMs", "setting": "[30]", "result": 2, "unit": "PSMs"}, {"measurement": "PSMs", "setting": "[31]", "result": 3, "unit": "PSMs"}, {"measurement": "PSMs", "setting": "[32]", "result": 10, "unit": "PSMs"}, {"measurement": "PSMs", "setting": "[33]", "result": 2, "unit": "PSMs"}, {"measurement": "PSMs", "setting": "[34]", "result": 5, "unit": "PSMs"}, {"measurement": "PSMs", "setting": "[35]", "result": 6, "unit": "PSMs"}, {"measurement": "PSMs", "setting": "[36]", "result": 61, "unit": "PSMs"}]}]}
